According to patent US20250270584A1, “Gene editing to provide insect resistance in crops” (The Regents of the University of California, priority 2022, published 2025):

The substances below were run against GLR3.3-3Flag (Arabidopsis thaliana) (UniProt Q9C8E7) (assay: IP-MS, anti-Flag IP of GLR3.3-3Flag from leaves of transgenic plants; co-enrichment, may be indirect).
Sequence of GLR3.3-3Flag (Arabidopsis thaliana) (Q9C8E7 24-933): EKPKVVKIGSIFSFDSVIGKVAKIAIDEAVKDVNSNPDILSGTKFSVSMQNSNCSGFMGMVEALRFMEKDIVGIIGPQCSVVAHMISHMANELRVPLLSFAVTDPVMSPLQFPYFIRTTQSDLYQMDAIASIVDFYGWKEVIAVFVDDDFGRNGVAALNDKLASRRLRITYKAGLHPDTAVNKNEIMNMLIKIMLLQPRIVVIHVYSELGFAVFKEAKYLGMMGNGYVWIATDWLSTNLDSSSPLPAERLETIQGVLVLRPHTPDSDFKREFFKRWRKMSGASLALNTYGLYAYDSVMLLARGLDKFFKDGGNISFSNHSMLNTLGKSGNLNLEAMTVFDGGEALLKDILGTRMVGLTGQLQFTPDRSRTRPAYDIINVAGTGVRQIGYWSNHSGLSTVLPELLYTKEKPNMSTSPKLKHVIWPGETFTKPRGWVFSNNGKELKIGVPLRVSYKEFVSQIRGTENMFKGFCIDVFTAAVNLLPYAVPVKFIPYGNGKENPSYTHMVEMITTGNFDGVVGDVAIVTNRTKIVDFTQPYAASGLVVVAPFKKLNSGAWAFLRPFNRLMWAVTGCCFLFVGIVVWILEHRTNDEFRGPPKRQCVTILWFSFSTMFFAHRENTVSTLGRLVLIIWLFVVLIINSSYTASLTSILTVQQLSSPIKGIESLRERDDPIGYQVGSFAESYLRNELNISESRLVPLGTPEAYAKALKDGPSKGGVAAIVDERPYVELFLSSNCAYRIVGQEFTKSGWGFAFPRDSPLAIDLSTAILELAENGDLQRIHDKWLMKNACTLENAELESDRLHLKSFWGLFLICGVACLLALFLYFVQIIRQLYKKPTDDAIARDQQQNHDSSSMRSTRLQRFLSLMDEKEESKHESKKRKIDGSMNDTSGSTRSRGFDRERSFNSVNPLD

Question: “GLR3.5 (from UniProt Q9SW97 30-953) (receptor)” was tested. Which unique peptide number (unique peptides) did it give?
Answer: 9

Question: How did the unique peptide number (unique peptides) turn out when “CAM5 (calmodulin) (from UniProt Q682T9 1-149)” was run?
Answer: 7

Question: “PIP2; 4 (plasma membrane intrinsic protein 2; 4) (from UniProt Q9FF53 1-291)” was tested. Which unique peptide number (unique peptides) did it give?
Answer: 5

Question: Which unique peptide number (unique peptides) does the source give for “UBA1 (ubiquitin-activating enzyme (E1)) (from UniProt P93028 1-1080)” here?
Answer: 7

Question: “GLR3.2 (from UniProt Q93YT1 23-912) (receptor)” was tested. Which unique peptide number (unique peptides) did it give?
Answer: 4

Question: “AHA2 (plasma membrane proton ATPase 2) (from UniProt P19456 2-948) (enzyme)” was tested. Which unique peptide number (unique peptides) did it give?
Answer: 17

Question: With “HSP70-2 (member of heat shock protein 70 family) (from UniProt P22954 1-653)” as the substance, how does the unique peptide number (unique peptides) read?
Answer: 12

Question: “GLR2.6 (from UniProt Q9LFN8 32-967) (receptor)” was tested. Which unique peptide number (unique peptides) did it give?
Answer: 12

Question: How did the unique peptide number (unique peptides) turn out when “TGG1 (member of glycoside hydrolase family 1) (from UniProt P37702 20-541) (enzyme)” was run?
Answer: 6

Question: “FTIP1 (multiple C2 domain and transmembrane region protein 1) (from UniProt Q9FL59 1-794)” was tested. Which unique peptide number (unique peptides) did it give?
Answer: 21

Question: How did the unique peptide number (unique peptides) turn out when “AMY3 (plastid-localized α-amylase) (from UniProt Q94A41 56-887) (enzyme)” was run?
Answer: 8

Question: For “GLU2 (glutamate synthase 2) (from UniProt Q9T0P4 108-1629) (enzyme)”, which unique peptide number (unique peptides) is on record?
Answer: 13

Question: Which unique peptide number (unique peptides) does the source give for “PIP2; 7 (plasma membrane intrinsic protein 3) (from UniProt P93004 1-280)” here?
Answer: 7

Question: With “NIT1 (nitrilase isoenzyme family) (from UniProt P32961 2-346)” as the substance, how does the unique peptide number (unique peptides) read?
Answer: 17

Question: How did the unique peptide number (unique peptides) turn out when “LOX2 (chloroplast lipoxygenase 2) (from UniProt P38418 57-896) (enzyme)” was run?
Answer: 9

Question: With “CAT2 (catalase) (from UniProt P25819 1-492) (enzyme)” as the substance, how does the unique peptide number (unique peptides) read?
Answer: 6

Question: “CAM6 (calmodulin) (from UniProt Q03509 1-149)” was tested. Which unique peptide number (unique peptides) did it give?
Answer: 4

Question: Which unique peptide number (unique peptides) does the source give for “HSP70-1 (member of heat shock protein 70 family) (from UniProt P22953 2-651)” here?
Answer: 15

Question: “CAT3 (catalase) (from UniProt Q42547 1-492) (enzyme)” was tested. Which unique peptide number (unique peptides) did it give?
Answer: 6

Question: Which unique peptide number (unique peptides) does the source give for “coatomer, alpha subunit (from UniProt Q9SJT9 1-1218)” here?
Answer: 10

Question: How did the unique peptide number (unique peptides) turn out when “VEN3 (carbamoyl phosphate synthetase (CPS) large subunit) (from UniProt Q42601 63-1187) (enzyme)” was run?
Answer: 12

Question: For “AHA1 (plasma membrane proton ATPase 1) (from UniProt P20649 2-949) (enzyme)”, which unique peptide number (unique peptides) is on record?
Answer: 23

Question: With “CAM3 (calmodulin) (from UniProt P0DH98 1-149)” as the substance, how does the unique peptide number (unique peptides) read?
Answer: 7

Question: How did the unique peptide number (unique peptides) turn out when “CLPC1 (Clp protease ATP-binding subunit homologue) (from UniProt Q9FI56 39-929)” was run?
Answer: 21

Question: “GAPB (glyceraldehyde-3-phosphate dehydrogenase B subunit) (from UniProt P25857 81-447) (enzyme)” was tested. Which unique peptide number (unique peptides) did it give?
Answer: 4

Question: For “RCA (rubisco activase) (from UniProt P10896 59-474) (enzyme)”, which unique peptide number (unique peptides) is on record?
Answer: 12

Question: “CaM7 (calmodulin 7) (from UniProt P59220 1-149)” was tested. Which unique peptide number (unique peptides) did it give?
Answer: 11

Question: How did the unique peptide number (unique peptides) turn out when “TKL1 (transketolase involved in carbon fixation) (from UniProt Q8RWV0 67-741) (enzyme)” was run?
Answer: 17

Question: With “TPP2 (tripeptidyl peptidase II) (from UniProt F4JVN6 1-1380) (enzyme)” as the substance, how does the unique peptide number (unique peptides) read?
Answer: 42

Question: For “tRNA synthetase class I (I, L, M and V) family protein (from UniProt F4JLM5 1-1190) (enzyme)”, which unique peptide number (unique peptides) is on record?
Answer: 62

Question: For “KEA1 (K^+ efflux antiporter 1) (from UniProt Q9ZTZ7 50-1193)”, which unique peptide number (unique peptides) is on record?
Answer: 5

Question: How did the unique peptide number (unique peptides) turn out when “EDD1 (glycine-tRNA ligase) (from UniProt Q8L785 51-1067) (enzyme)” was run?
Answer: 4

Question: How did the unique peptide number (unique peptides) turn out when “GLDP2 (P-subunit of glycine decarboxylase) (from UniProt O80988 73-1044) (enzyme)” was run?
Answer: 11

Question: Which unique peptide number (unique peptides) does the source give for “PIP2; 1 (plasma membrane intrinsic protein 2A) (from UniProt P43286 1-287)” here?
Answer: 7

Question: Which unique peptide number (unique peptides) does the source give for “GLU1 (glutamate synthase 1) (from UniProt Q9ZNZ7 106-1622) (enzyme)” here?
Answer: 57

Question: How did the unique peptide number (unique peptides) turn out when “LOS1 (translation elongation factor 2-like protein) (from UniProt Q9ASR1 1-843)” was run?
Answer: 21

Question: With “PWD (chloroplastidic phosphoglucan, water dikinase) (from UniProt Q6ZY51 55-1196) (enzyme)” as the substance, how does the unique peptide number (unique peptides) read?
Answer: 43

Question: For “PPC2 (phosphoenolpyruvate carboxylase protein 2) (from UniProt Q5GM68 1-963) (enzyme)”, which unique peptide number (unique peptides) is on record?
Answer: 12

Question: Which unique peptide number (unique peptides) does the source give for “EIF3A (a subunit of eukaryotic initiation factor 3 (eIF3)) (from UniProt Q9LD55 1-987)” here?
Answer: 4

Question: With “ATMS1 (cobalamin-independent synthase family protein) (from UniProt O50008 1-765) (enzyme)” as the substance, how does the unique peptide number (unique peptides) read?
Answer: 14

Question: With “TIC110 (translocon at the chloroplast inner envelope) (from UniProt Q8LPR9 52-1016)” as the substance, how does the unique peptide number (unique peptides) read?
Answer: 16

Question: With “GLDP1 (glycine decarboxylase P-protein 1) (from UniProt Q94B78 68-1037) (enzyme)” as the substance, how does the unique peptide number (unique peptides) read?
Answer: 15
